In PMC5850324, “Interactions between the Hepatitis C Virus Nonstructural 2 Protein and Host Adaptor Proteins 1 and 4 Orchestrate Virus Release” (mBio, 2018):

B1: GLuc2-NS2 (hepatitis C virus nonstructural 2 protein, wild type) [hepatitis C virus (J6/JFH genome)] / GLuc1-tagged μ subunit of the AP-1B complex [not stated] (parent)
chain 1: YDASVHGQIGAALLVLITLFTLTPGYKTLLSRFLWWLCYLLTLAEAMVQEWAPPMQVRGGRDGIIWAVAIFCPGVVFDITKWLLAVLGPAYLLKGALTRVPYFVRAHALLRMCTMVRHLAGGRYVQMVLLALGRWTGTYIYDHLTPMSDWAANGLRDLAVAVEPIIFSPMEKKVIVWGAETAACGDILHGLPVSARLGREVLLGPADGYTSKGWSLL
chain 2: MSASAVFILDVKGKPLISRNYKGDVAMSKIEHFMPLLVQREEEGALAPLLSHGQVHFLWIKHSNLYLVATTSKNANASLVYSFLYKTIEVFCEYFKELEEESIRDNFVIVYELLDELMDFGFPQTTDSKILQEYITQQSNKLETGKSRVPPTVTNAVSWRSEGIKYKKNEVFIDVIESVNLLVNANGSVLLSEIVGTIKLKVFLSGMPELRLGLNDRVLFELTGRSKNKSVELEDVKFHQCVRLSRFDNDRTISFIPPDGDFELMSYRLSTQVKPLIWIESVIEKFSHSRVEIMVKAKGQFKKQSVANGVEISVPVPSDADSPRFKTSVGSAKYVPERNVVIWSIKSFPGGKEYLMRAHFGLPSVEKEEVEGRPPIGVKFEIPYFTVSGIQVRYMKIIEKSGYQALPWVRYITQSGDYQLRTS
B2: GLuc2-NS2 (hepatitis C virus nonstructural 2 protein, wild type) [hepatitis C virus (J6/JFH genome)] / GLuc1-tagged μ subunit of the AP-1A complex [not stated] (parent)
chain 1: B1 chain 1
chain 2: MSASAVYVLDLKGKVLICRNYRGDVDMSEVEHFMPILMEKEEEGMLSPILAHGGVRFMWIKHNNLYLVATSKKNACVSLVFSFLYKVVQVFSEYFKELEEESIRDNFVIIYELLDELMDFGYPQTTDSKILQEYITQEGHKLETGAPRPPATVTNAVSWRSEGIKYRKNEVFLDVIESVNLLVSANGNVLRSEIVGSIKMRVFLSGMPELRLGLNDKVLFDNTGRGKSKSVELEDVKFHQCVRLSRFENDRTISFIPPDGEFELMSYRLNTHVKPLIWIESVIEKHSHSRIEYMIKAKSQFKRRSTANNVEIHIPVPNDADSPKFKTTVGSVKWVPENSEIVWSIKSFPGGKEYLMRAHFGLPSVEAEDKEGKPPISVKFEIPYFTTSGIQVRYLKIIEKSGYQALPWVRYITQNGDYQLRTQ

Variants of: B1
Assay: PCA (protein-fragment complementation assay)
Conditions: with GLuc1-tagged μ subunit of the AP-1B complex; parent: 1; read off a plot

Variant	ratio to parent
chain 1 L216A	0.77
chain 1 L217A	0.76
chain 1 L203A	0.67
chain 1 D207A	0.79
chain 1 L202A	0.8
chain 1 L202A L203A L216A L217A	0.47
chain 1 L202A L217A	0.55
chain 1 E200A	0.97

Variants of: B2
Assay: PCA (protein-fragment complementation assay)
Conditions: with GLuc1-tagged μ subunit of the AP-1A complex; parent: 1; read off a plot

Variant	ratio to parent
chain 1 L217A	0.68
chain 1 L202A	0.71
chain 1 E200A	1
chain 1 L202A L203A L216A L217A	0.33
chain 1 L203A	0.67
chain 1 D207A	0.74
chain 1 L216A	0.56
chain 1 L202A L217A	0.38
